Measurements taken from article PMC6124603 (Journal of Visualized Experiments : JoVE, 2018).

What was measured:
[1] = target: T1, CD22 extracellular domain (CD22 ECD) produced in HEK293F cells (Homo sapiens, UniProt P20273); assay: ITC
[2] = target: T1, CD22 extracellular domain (CD22 ECD) …; assay: BLI
[3] = target: CD22 construct with smaller N-linked glycans (human) (UniProt P20273); assay: BLI
CD22 construct with smaller N-linked glycans (human), sequence (P20273 20-687): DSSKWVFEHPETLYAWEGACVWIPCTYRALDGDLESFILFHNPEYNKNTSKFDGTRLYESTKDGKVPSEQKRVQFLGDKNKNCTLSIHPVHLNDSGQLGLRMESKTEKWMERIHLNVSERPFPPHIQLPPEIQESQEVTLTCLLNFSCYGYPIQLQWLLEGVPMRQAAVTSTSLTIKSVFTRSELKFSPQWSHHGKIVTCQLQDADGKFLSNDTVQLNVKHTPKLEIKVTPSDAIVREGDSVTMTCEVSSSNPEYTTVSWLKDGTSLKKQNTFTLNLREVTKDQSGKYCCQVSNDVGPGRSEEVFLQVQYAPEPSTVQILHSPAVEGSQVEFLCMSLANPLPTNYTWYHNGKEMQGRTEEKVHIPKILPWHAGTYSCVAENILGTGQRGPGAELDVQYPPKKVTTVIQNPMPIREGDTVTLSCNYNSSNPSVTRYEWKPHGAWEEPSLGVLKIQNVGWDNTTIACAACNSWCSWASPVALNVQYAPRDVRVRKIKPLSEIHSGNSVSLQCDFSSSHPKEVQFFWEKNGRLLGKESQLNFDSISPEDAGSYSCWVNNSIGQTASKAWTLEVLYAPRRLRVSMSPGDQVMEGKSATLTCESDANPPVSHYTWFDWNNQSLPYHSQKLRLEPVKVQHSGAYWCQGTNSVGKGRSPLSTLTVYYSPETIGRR

T1 sequence (P20273 20-687): as above

B1: epratuzumab Fab (Fab, V domains shown)
VH: QVQLVQSGAEVKKPGSSVKVSCKASGYTFTSYWLHWVRQAPGQGLEWIGYINPRNDYTEYNQNFKDKATITADESTNTAYMELSSLRSEDTAFYFCARRDITTFYWGQGTTVTVSS
VL: DIQLTQSPSSLSASVGDRVTMSCKSSQSVLYSANHKNYLAWYQQKPGKAPKLLIYWASTRESGVPSRFSGSGSGTDFTLTISSLQPEDIATYYCHQYLSSWTFGGGTKLEIK
Kd [1]: 188 nM | Kd [2]: 327 nM | Kd [3]: 24 nM
